Read-outs that look alike come from different tables or passages of the source.
Test system: Nc1ncnc2c1ncn2[C@@H]1O[C@H](COP(=O)(O)OP(=O)(O)OP(=O)(O)O)[C@@H](O)[C@H]1O
Test: purified protein

MsbA (Escherichia coli K-12; D512G) showed a Km (1 µM MsbA, 0-1 mM ATP, 30 min) of 122 ± 29 µM.
Substance MsbA (Escherichia coli K-12; L511P) has a Km of 23 ± 12 µM.

Source: publication PMC3110719
